Reference: patent publication US5919761A, “Peptides for heparin and low molecular weight heparin anticoagulation reversal” (The Board of Regents of the University of Michigan, priority 1995, dated 1999)

Key:
[1] = Platelet count, leukocyte count and bleeding time after LMWH reversal at different rates, canine study; type: in vivo, dogs
Procedure: The anticoagulation-reversing agents were administered rapidly over 10 seconds to maximize hemodynamic effects or more slowly over a 3 minute interval. Changes in LMWH anticoagulation occurring from metabolism alone were determined in a separate group of dogs not given any reversal agent.

LMWH (Enoxaparin) = assay: Factor Xa and IIa reversal after LMWH Enoxaparin, canine study; type: in vivo; conditions: dogs, 3 min
Procedure: Similar studies were conducted to assess the ability of the protamine-like peptide analogs described in this section to reverse the anticoagulation effects of the LMWH, Enoxaparin. FIG. 5a through FIG. 5d are graphical representations of LMWH anticoagulation activities achieved by n-protamine (Protamine [+21]), and compounds [+18BE], [+18KDEL], and [+18RGD] plotted as a percent of reversal against time in minutes. […] Referring to FIG. 5c, compound [+18RGD] dramatically outperforms n-protamine in reversing the heparin antifactor Xa activity of Enoxaparin.

[2] = clinical use; cited from earlier work
[3] = Maximum hemodynamic changes and total toxicity score after standard heparin reversal, cell adhesion ligand analogs, canine study; conditions: dogs, agent over 10 seconds
Procedure: In these studies, the anticoagulation-reversing agents were administered over a 10 second interval to maximize the hemodynamic effects.
Hemodynamic studies were conducted by measuring mean blood pressure (Mean BP) in mm Mercury, maximum percent changes in cardiac output (CO) and systemic oxygen consumption (VO2), and heart rate (HR) in beats per minute. Measurements and calculations were made at baseline, before administration of standard, unfractionated heparin, 3 minutes before reversal, every 30 seconds for 5 minutes after reversal.
Total toxicity scores (TTS) were developed in accordance with the method described hereinabove that reflected maximum declines in each of four parameters (MAP, CO, VO2 and HR) over the first 5 minutes after reversal.

[4] = dogs, Logiparin, administered over 3 min

## PR4 S3 RPVR5 PRVSR6 G2 R4 [Protamine [+21], reference compound]
[1]; dogs, Logiparin, administered over 10 sec
  Maximal decline in leukocyte count: -3%
[1]; [4]
  Maximal decline in leukocyte count: -26%
  Maximal thrombocytopenia: -32%
[1]; selected animals, given over a 3 minute interval
  bleeding time: ≤ 8 min
LMWH (Enoxaparin)
  IIa Reversal: 98%
  Xa Reversal: 30%
[2]
  cases with significant systemic arterial hypertension and pulmonary artery hypertension: about 4%
[3]; standard heparin 150 IU/kg IV, 5 minutes
  Maximum hemodynamic change, Mean BP: -31 mm Mercury
[3]; standard heparin, 5 minutes
  Maximum hemodynamic change, CO: -36%
  Maximum hemodynamic change, HR: -27 beats/min
  Maximum hemodynamic change, VO2: -32%
[3]; standard unfractionated heparin
  Total Toxicity Score: -8.02 ± 5.20
